{
  "source": "patent US20110064668A1",
  "key": {"[1]": {"biological_target": "Kv1.6 channel", "assay": "cell-based or functional assay"}, "[2]": {"biological_target": "α3β4 subtype of rat neuronal nAChR (rat), P04757", "sequence (P04757 26-499, chain 1 of 2)": "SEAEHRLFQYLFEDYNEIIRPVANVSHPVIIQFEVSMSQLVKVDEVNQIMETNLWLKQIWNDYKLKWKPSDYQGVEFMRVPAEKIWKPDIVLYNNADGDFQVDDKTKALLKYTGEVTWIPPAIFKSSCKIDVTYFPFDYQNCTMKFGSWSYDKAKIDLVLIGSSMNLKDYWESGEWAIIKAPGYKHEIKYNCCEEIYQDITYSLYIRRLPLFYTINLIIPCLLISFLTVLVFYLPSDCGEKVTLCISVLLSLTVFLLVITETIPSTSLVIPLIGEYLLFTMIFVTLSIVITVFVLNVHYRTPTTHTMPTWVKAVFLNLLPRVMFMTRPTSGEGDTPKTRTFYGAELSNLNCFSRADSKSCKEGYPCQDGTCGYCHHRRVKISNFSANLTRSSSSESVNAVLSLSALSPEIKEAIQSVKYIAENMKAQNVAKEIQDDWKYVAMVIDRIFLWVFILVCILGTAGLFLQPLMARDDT", "sequence (P12392 21-495, chain 2 of 2, further chain)": "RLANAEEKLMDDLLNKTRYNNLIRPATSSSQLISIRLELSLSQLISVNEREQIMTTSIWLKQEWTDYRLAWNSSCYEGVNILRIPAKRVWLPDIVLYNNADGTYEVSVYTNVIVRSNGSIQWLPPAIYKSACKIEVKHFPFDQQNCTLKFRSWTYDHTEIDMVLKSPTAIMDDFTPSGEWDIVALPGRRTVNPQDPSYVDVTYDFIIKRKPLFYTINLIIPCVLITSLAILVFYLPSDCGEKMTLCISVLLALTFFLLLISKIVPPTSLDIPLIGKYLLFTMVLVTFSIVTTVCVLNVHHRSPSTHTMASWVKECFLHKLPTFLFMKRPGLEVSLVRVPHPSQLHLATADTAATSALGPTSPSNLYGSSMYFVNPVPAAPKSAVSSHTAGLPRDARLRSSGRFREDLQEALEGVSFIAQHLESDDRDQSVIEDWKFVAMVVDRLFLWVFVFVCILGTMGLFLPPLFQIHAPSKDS", "assay": "cell-based or functional assay"}},
  "data": [
    {"binder": "FPRPRICNLACRAGIGHKYPFCHCR (modifications not checked)", "note": "[conotoxin pl14a]", "values": [
      {"measurement": "IC50, µM (vitelline membrane retained)", "setting": "[1]", "result": 3.12, "unit": "µM"},
      {"measurement": "IC50 for the block of Kv1.6 currents (vitelline membrane removed)", "setting": "[1]", "result": 1.59, "unit": "µM"},
      {"measurement": "IC50 in α3β4 (nM), block of ACh-elicited current in oocytes", "setting": "[2]", "result": 8700, "unit": "nM"}
    ]}
  ]
}
